The values that follow are results of earlier work, collected in paper PMC10086210.

The target of the data set is PD-L1 (Homo sapiens) (UniProt Q9NZQ7).
UniProt Q9NZQ7, sequence (Q9NZQ7 19-238): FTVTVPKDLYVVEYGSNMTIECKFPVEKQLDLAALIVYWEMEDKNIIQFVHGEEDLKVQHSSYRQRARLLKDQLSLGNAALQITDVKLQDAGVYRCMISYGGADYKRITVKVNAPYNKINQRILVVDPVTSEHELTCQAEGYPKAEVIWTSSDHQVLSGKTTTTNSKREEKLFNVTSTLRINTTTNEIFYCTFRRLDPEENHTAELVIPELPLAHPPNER

Turning to DPPA-1, the Kd is 510 nM.
